T1: CD19 expressed on the cell surface of tumor cells (UniProt P15391 20-556, limits assumed)
T1 sequence (looked up): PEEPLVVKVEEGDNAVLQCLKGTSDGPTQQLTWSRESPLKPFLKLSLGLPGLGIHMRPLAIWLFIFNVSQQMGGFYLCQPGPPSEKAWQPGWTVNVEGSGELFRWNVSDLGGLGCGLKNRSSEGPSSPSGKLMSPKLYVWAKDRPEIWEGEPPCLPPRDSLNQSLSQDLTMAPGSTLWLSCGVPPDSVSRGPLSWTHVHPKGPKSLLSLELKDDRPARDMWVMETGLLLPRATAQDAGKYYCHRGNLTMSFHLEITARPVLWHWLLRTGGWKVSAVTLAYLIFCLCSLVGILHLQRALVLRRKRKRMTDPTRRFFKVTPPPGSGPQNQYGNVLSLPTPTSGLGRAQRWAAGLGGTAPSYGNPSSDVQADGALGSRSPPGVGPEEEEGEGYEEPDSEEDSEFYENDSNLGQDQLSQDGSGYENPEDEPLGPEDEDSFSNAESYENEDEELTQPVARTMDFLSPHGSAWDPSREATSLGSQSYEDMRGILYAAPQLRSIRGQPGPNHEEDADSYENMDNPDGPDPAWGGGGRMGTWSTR

B1: anti-CD19/anti-Vα7.2 Fab-Fab (bispecific antibody)
heavy: QVQLQQSGAELVRPGSSVKISCKASGYAFSSYWMNWVKQRPGQGLEWIGQIWPGDGDTNYNGKFKGKATLTADESSSTAYMQLSSLASEDSAVYFCARRETTTVGRYYYAMDYWGQGTTVTVSSASTKGPSVFPLAPSSKSTSGGTAALGCLVKDYFPEPVTVSWNSGALTSGVHTFPAVLQSSGLYSLSSVVDVPSSSLGTQTYICNVNHKPSNTKVDKRVEPKSCDKTHTAPPAPAPELLGGPAAPPAPAPAGGEVQLQQSGAELVKPGASVKLSCTASGFNIKDTHMHWVKQRPEQGLEWIGRTDPASGDTKYDPKFQGKATITADTSSNTAYLHLSSLTSEDTAVYYCAHYYRDDVNYAMDYWGQGTTVTVSSASTKGPSVFPQAPSSKSTSGGTAALGCLVKDYFPEPVTVSWNSGALTSGVHTFPAVLQSSGLYSLVSVVTVPSSSLGTQTYICNVNHKPSNTKVDKRVEPKSC
light 1: not shown
light 2: DIVMTQSQKFLSTSVGDRVSVTCKARQNVGSNVAWYQQKPGQSPKSLIYSSSFRYSGVPDRFTGSGSGTDFTLTISNVQSEDLAEYFCQQYNTYPYTFGGGTELEIKRTVAAPSVFIFPPSDEQLKSGTASVTCLLNNFYPREAKVQWKVDNALQSGNSQESVTEQDSKDSTYSLVSTLTLSKADYEKHKVYACEVTHQGLSSPVTKSFNRGEC
B2: anti-CD19/anti-Vα7.2 BiXAb (bispecific antibody, human IgG1, kappa, L234A L235A)
heavy: not shown
light 1: not shown
light 2: B1 light 2
B3: anti-Vα7.2/anti-CD19 BiXAb (bispecific antibody, human IgG1, kappa, L234A L235A)
heavy: not shown
light 1: not shown
light 2: B1 light 2
B4: anti-Vα7.2/anti-CD19 Fab-Fab (bispecific antibody)
heavy: EVQLQQSGAELVKPGASVKLSCTASGFNIKDTHMHWVKQRPEQGLEWIGRTDPASGDTKYDPKFQGKATITADTSSNTAYLHLSSLTSEDTAVYYCAHYYRDDVNYAMDYWGQGTTVTVSSASTKGPSVFPQAPSSKSTSGGTAALGCLVKDYFPEPVTVSWNSGALTSGVHTFPAVLQSSGLYSLVSVVTVPSSSLGTQTYICNVNHKPSNTKVDKRVEPKSCDKTHTAPPAPAPELLGGPAAPPAPAPAGGQVQLQQSGAELVRPGSSVKISCKASGYAFSSYWMNWVKQRPGQGLEWIGQIWPGDGDTNYNGKFKGKATLTADESSSTAYMQLSSLASEDSAVYFCARRETTTVGRYYYAMDYWGQGTTVTVSSASTKGPSVFPLAPSSKSTSGGTAALGCLVKDYFPEPVTVSWNSGALTSGVHTFPAVLQSSGLYSLSSVVDVPSSSLGTQTYICNVNHKPSNTKVDKRVEPKSC
light 1: not shown
light 2: B1 light 2
notes: Tandem Fab-Fab without Fc; anti-Vα7.2 Fab (from clone 3C10) at the N-terminus; also called Vα7.2/CD19 Fab-Fab

Assays:
[1] = biological target: T1, CD19 expressed on the cell surface of …; assay: cell-based or functional assay
[2] = biological target: T2, Vα7.2 TCR chain expressed on Vα7.2+CD8+ MAIT cells (human); assay: flow cytometry on Vα7.2+ cells among human CD8+ T cells
T2 construct: whole, on cells; also called TCR Vα7.2 chain; Vα7.2+ cells
T2 sequence (A0A0B4J238 19-106): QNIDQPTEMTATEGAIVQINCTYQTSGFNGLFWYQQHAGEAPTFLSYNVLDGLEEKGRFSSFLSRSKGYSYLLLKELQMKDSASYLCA
Method: The anti-Vα7.2/anti-CD19 Fab-Fab was then tested for binding on Vα7.2+CD8⁺ T cells. The assay was performed by flow cytometry. Human CD8⁺ T cells were isolated from purified peripheral blood mononuclear cells (PBMCs). Briefly, leukapheresis packs coming from healthy donors were centrifuged in ficoll gradients and the PBMCs were collected. CD8⁺ T cells were then isolated with a commercial negative selection kit (Miltenyi Biotec). These cells were then used to determine binding of anti-Vα7.2/anti-CD19 […] on Vα7.2⁺ cells. Cells were washed with PBS and stained with a Fixable Viability Dye (eFluor™ 780, ThermoFisher) and the human Fc Block reagent (BD) (in PBS for 25 min at 4° C.). The cells were then washed with FACS buffer (PBS, 2 mM EDTA, 0.5% BSA) and stained with different concentrations of anti-Vα7.2/anti-CD19 Fab-Fab (Table 3, shown in both nM and μg/ml) for 1 h at 4° C. An irrelevant Fab-Fab was used as a negative control. Following washing (5×), the cells were stained with a secondary goat anti-human antibody conjugated with Phycoerythrin (Jackson Immunoresearch) and an anti-CD8 antibody (Biolegend) for 45 min at 4° C. The cells were then analyzed in the MACSquant flow cytometer.
Depending on the donor, Vα7.2⁺ cells range between 1 to 10% of CD8⁺ T cells.

Binder	percentage of CD19+ A-549 tumor cells lysis [1] [%]	EC50 [2] [nM]
B1	≤ 30	
B2	≤ 30	
B3	≤ 30	
B4	≤ 30	3.49

— patent US20230322952A1 (BIOMUNEX PHARMACEUTICALS, published 2023)
